Measurements published in patent US20080113383A1 (FIBRO GEN, published 2008).
Where no end group is shown, it is not given here.

Molecular target: EGLN3
Test: cell-based or functional assay

Row | Binder | Activity (%)* [%]
1 | DTDLDAEATAPYIPADDDFQ [DTDLDAEATApYIPADDDFQ] | 18.5
2 | DTDLDAEAAAPYIPADDDFQ [DTDLDAEAAApYIPADDDFQ] | 7.18
3 | DTDLDREALAPYIPADDDFQ (not fully specified; printed as DTDLDREALApYIPADDDFQ) [DTDLDREALApYIPADDDFQ] | 49.8
4 | DTDLDLEMLRPYIPMDDDFQ (not fully specified; printed as DTDLDLEMLRpYIPMDDDFQ) [DTDLDLEMLRpYIPMDDDFQ] | 77.6
5 | DTDLDLEMLIPYIPMDDDFQ (not fully specified; printed as DTDLDLEMLIpYIPMDDDFQ) [DTDLDLEMLIpYIPMDDDFQ] | 101
6 | DTDLDTEATAPYIPADDDFQ (not fully specified; printed as DTDLDTEATApYIPADDDFQ) [DTDLDTEATApYIPADDDFQ] | 16.5
7 | DTDLDLEMLMPYIPMDDDFQ (not fully specified; printed as DTDLDLEMLMpYIPMDDDFQ) [DTDLDLEMLMpYIPMDDDFQ] | 58.9
8 | DTDLDLEMLKPYIPMDDDFQ (not fully specified; printed as DTDLDLEMLKpYIPMDDDFQ) [DTDLDLEMLKpYIPMDDDFQ] | 74.5
9 | DTDLDMEALAPYIPADDDFQ (not fully specified; printed as DTDLDMEALApYIPADDDFQ) [DTDLDMEALApYIPADDDFQ] | 128
10 | DTDLDLEMLFPYIPMDDDFQ (not fully specified; printed as DTDLDLEMLFpYIPMDDDFQ) [DTDLDLEMLFpYIPMDDDFQ] | 59.3
11 | DTDLDLEAGAPYIPADDDFQ [DTDLDLEAGApYIPADDDFQ] | 12.2
12 | DTDLDLEMLHPYIPMDDDFQ (not fully specified; printed as DTDLDLEMLHpYIPMDDDFQ) [DTDLDLEMLHpYIPMDDDFQ] | 68.2
13 | DTDLDIEAIAPYIPADDDFQ [DTDLDIEAIApYIPADDDFQ] | 72.8
14 | DTDLDVEATAPYIPADDDFQ (not fully specified; printed as DTDLDVEATApYIPADDDFQ) [DTDLDVEATApYIPADDDFQ] | 24
15 | DTDLDLEMLLPYIPMDDDFQ (not fully specified; printed as DTDLDLEMLLpYIPMDDDFQ) [DTDLDLEMLLpYIPMDDDFQ] | 46.2
16 | DTDLDLEAYAPYIPADDDFQ (not fully specified; printed as DTDLDLEAYApYIPADDDFQ) [DTDLDLEAYApYIPADDDFQ] | 90.1
17 | DTDLDLEAFAPYIPADDDFQ [DTDLDLEAFApYIPADDDFQ] | 76.4
18 | DTDLDTEAVAPYIPADDDFQ (not fully specified; printed as DTDLDTEAVApYIPADDDFQ) [DTDLDTEAVApYIPADDDFQ] | 26.8
19 | DTDLDLEARAPYIPADDDFQ [DTDLDLEARApYIPADDDFQ] | 68.6
20 | DTDLDLEMLCPYIPMDDDFQ (not fully specified; printed as DTDLDLEMLCpYIPMDDDFQ) [DTDLDLEMLCpYIPMDDDFQ] | 63.1
21 | DTDLDAEASAPYIPADDDFQ [DTDLDAEASApYIPADDDFQ] | 4.11
22 | DTDLDLEMLQPYIPMDDDFQ (not fully specified; printed as DTDLDLEMLQpYIPMDDDFQ) [DTDLDLEMLQpYIPMDDDFQ] | 59.9
23 | DTDLDLEAEAPYIPADDDFQ [DTDLDLEAEApYIPADDDFQ] | 16.9
24 | DTDLDLEMLEPYIPMDDDFQ (not fully specified; printed as DTDLDLEMLEpYIPMDDDFQ) [DTDLDLEMLEpYIPMDDDFQ] | 52.8
25 | DTDLDLEAIAPYIPADDDFQ [DTDLDLEAIApYIPADDDFQ] | 104

Molecular target: EGLN1
Test: cell-based or functional assay

Row | Binder | Activity (%)* [%]
26 | DTDLDAEATAPYIPADDDFQ [DTDLDAEATApYIPADDDFQ] | 20.8
27 | DTDLDAEAAAPYIPADDDFQ [DTDLDAEAAApYIPADDDFQ] | 12.6
28 | DTDLDREALAPYIPADDDFQ (not fully specified; printed as DTDLDREALApYIPADDDFQ) [DTDLDREALApYIPADDDFQ] | 19.9
29 | DTDLDLEMLRPYIPMDDDFQ (not fully specified; printed as DTDLDLEMLRpYIPMDDDFQ) [DTDLDLEMLRpYIPMDDDFQ] | 19.8
30 | DTDLDLEMLIPYIPMDDDFQ (not fully specified; printed as DTDLDLEMLIpYIPMDDDFQ) [DTDLDLEMLIpYIPMDDDFQ] | 15.6
31 | DTDLDTEATAPYIPADDDFQ (not fully specified; printed as DTDLDTEATApYIPADDDFQ) [DTDLDTEATApYIPADDDFQ] | 21.9
32 | DTDLDLEMLMPYIPMDDDFQ (not fully specified; printed as DTDLDLEMLMpYIPMDDDFQ) [DTDLDLEMLMpYIPMDDDFQ] | 26.4
33 | DTDLDLEMLKPYIPMDDDFQ (not fully specified; printed as DTDLDLEMLKpYIPMDDDFQ) [DTDLDLEMLKpYIPMDDDFQ] | 68.7
34 | DTDLDMEALAPYIPADDDFQ (not fully specified; printed as DTDLDMEALApYIPADDDFQ) [DTDLDMEALApYIPADDDFQ] | 86.4
35 | DTDLDLEMLFPYIPMDDDFQ (not fully specified; printed as DTDLDLEMLFpYIPMDDDFQ) [DTDLDLEMLFpYIPMDDDFQ] | 4.16
36 | DTDLDLEAGAPYIPADDDFQ [DTDLDLEAGApYIPADDDFQ] | 11.3
37 | DTDLDLEMLHPYIPMDDDFQ (not fully specified; printed as DTDLDLEMLHpYIPMDDDFQ) [DTDLDLEMLHpYIPMDDDFQ] | 2.41
38 | DTDLDIEAIAPYIPADDDFQ [DTDLDIEAIApYIPADDDFQ] | 72.5
39 | DTDLDVEATAPYIPADDDFQ (not fully specified; printed as DTDLDVEATApYIPADDDFQ) [DTDLDVEATApYIPADDDFQ] | 20.4
40 | DTDLDLEMLLPYIPMDDDFQ (not fully specified; printed as DTDLDLEMLLpYIPMDDDFQ) [DTDLDLEMLLpYIPMDDDFQ] | 2.36
41 | DTDLDLEAYAPYIPADDDFQ (not fully specified; printed as DTDLDLEAYApYIPADDDFQ) [DTDLDLEAYApYIPADDDFQ] | 77.2
42 | DTDLDLEAFAPYIPADDDFQ [DTDLDLEAFApYIPADDDFQ] | 82.2
43 | DTDLDTEAVAPYIPADDDFQ (not fully specified; printed as DTDLDTEAVApYIPADDDFQ) [DTDLDTEAVApYIPADDDFQ] | 16.6
44 | DTDLDLEARAPYIPADDDFQ [DTDLDLEARApYIPADDDFQ] | 79
45 | DTDLDLEMLCPYIPMDDDFQ (not fully specified; printed as DTDLDLEMLCpYIPMDDDFQ) [DTDLDLEMLCpYIPMDDDFQ] | 1.94
46 | DTDLDAEASAPYIPADDDFQ [DTDLDAEASApYIPADDDFQ] | 10.5
47 | DTDLDLEMLQPYIPMDDDFQ (not fully specified; printed as DTDLDLEMLQpYIPMDDDFQ) [DTDLDLEMLQpYIPMDDDFQ] | 45.1
48 | DTDLDLEAEAPYIPADDDFQ [DTDLDLEAEApYIPADDDFQ] | 9.97
49 | DTDLDLEMLEPYIPMDDDFQ (not fully specified; printed as DTDLDLEMLEpYIPMDDDFQ) [DTDLDLEMLEpYIPMDDDFQ] | 2.27
50 | DTDLDLEAIAPYIPADDDFQ [DTDLDLEAIApYIPADDDFQ] | 88

Molecular target: EGLN2
Test: cell-based or functional assay

Row | Binder | Activity (%)* [%]
51 | DTDLDAEATAPYIPADDDFQ [DTDLDAEATApYIPADDDFQ] | 19.4
52 | DTDLDAEAAAPYIPADDDFQ [DTDLDAEAAApYIPADDDFQ] | 8.63
53 | DTDLDREALAPYIPADDDFQ (not fully specified; printed as DTDLDREALApYIPADDDFQ) [DTDLDREALApYIPADDDFQ] | 15.7
54 | DTDLDLEMLRPYIPMDDDFQ (not fully specified; printed as DTDLDLEMLRpYIPMDDDFQ) [DTDLDLEMLRpYIPMDDDFQ] | 14.3
55 | DTDLDLEMLIPYIPMDDDFQ (not fully specified; printed as DTDLDLEMLIpYIPMDDDFQ) [DTDLDLEMLIpYIPMDDDFQ] | 17.8
56 | DTDLDTEATAPYIPADDDFQ (not fully specified; printed as DTDLDTEATApYIPADDDFQ) [DTDLDTEATApYIPADDDFQ] | 24.8
57 | DTDLDLEMLMPYIPMDDDFQ (not fully specified; printed as DTDLDLEMLMpYIPMDDDFQ) [DTDLDLEMLMpYIPMDDDFQ] | 27.8
58 | DTDLDLEMLKPYIPMDDDFQ (not fully specified; printed as DTDLDLEMLKpYIPMDDDFQ) [DTDLDLEMLKpYIPMDDDFQ] | 57.7
59 | DTDLDMEALAPYIPADDDFQ (not fully specified; printed as DTDLDMEALApYIPADDDFQ) [DTDLDMEALApYIPADDDFQ] | 79.1
60 | DTDLDLEMLFPYIPMDDDFQ (not fully specified; printed as DTDLDLEMLFpYIPMDDDFQ) [DTDLDLEMLFpYIPMDDDFQ] | 0.63
61 | DTDLDLEAGAPYIPADDDFQ [DTDLDLEAGApYIPADDDFQ] | 9.84
62 | DTDLDLEMLHPYIPMDDDFQ (not fully specified; printed as DTDLDLEMLHpYIPMDDDFQ) [DTDLDLEMLHpYIPMDDDFQ] | 3.47
63 | DTDLDIEAIAPYIPADDDFQ [DTDLDIEAIApYIPADDDFQ] | 64.3
64 | DTDLDVEATAPYIPADDDFQ (not fully specified; printed as DTDLDVEATApYIPADDDFQ) [DTDLDVEATApYIPADDDFQ] | 13.6
65 | DTDLDLEMLLPYIPMDDDFQ (not fully specified; printed as DTDLDLEMLLpYIPMDDDFQ) [DTDLDLEMLLpYIPMDDDFQ] | -0.42
66 | DTDLDLEAYAPYIPADDDFQ (not fully specified; printed as DTDLDLEAYApYIPADDDFQ) [DTDLDLEAYApYIPADDDFQ] | 67.8
67 | DTDLDLEAFAPYIPADDDFQ [DTDLDLEAFApYIPADDDFQ] | 73.9
68 | DTDLDTEAVAPYIPADDDFQ (not fully specified; printed as DTDLDTEAVApYIPADDDFQ) [DTDLDTEAVApYIPADDDFQ] | 19
69 | DTDLDLEARAPYIPADDDFQ [DTDLDLEARApYIPADDDFQ] | 78.6
70 | DTDLDLEMLCPYIPMDDDFQ (not fully specified; printed as DTDLDLEMLCpYIPMDDDFQ) [DTDLDLEMLCpYIPMDDDFQ] | 0.4
71 | DTDLDAEASAPYIPADDDFQ [DTDLDAEASApYIPADDDFQ] | 8.82
72 | DTDLDLEMLQPYIPMDDDFQ (not fully specified; printed as DTDLDLEMLQpYIPMDDDFQ) [DTDLDLEMLQpYIPMDDDFQ] | 38.1
73 | DTDLDLEAEAPYIPADDDFQ [DTDLDLEAEApYIPADDDFQ] | 13.2
74 | DTDLDLEMLEPYIPMDDDFQ (not fully specified; printed as DTDLDLEMLEpYIPMDDDFQ) [DTDLDLEMLEpYIPMDDDFQ] | 3.35
75 | DTDLDLEAIAPYIPADDDFQ [DTDLDLEAIApYIPADDDFQ] | 89
